± gives the uncertainty stated by the source.
Experiment: protein stability index of a GFP-peptide fusion (yeast GPS) (PSI 1-4); higher = more stable; sorted into four equal gates, so the index is relative within each strain
In short: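 Sequencing reads from sorted gates were used to score each peptide. The library consisted of tiled 17-residue yeast protein peptides fused downstream of GFP on a Cherry-expressing plasmid, pooled and carried in yeast. Mid-log cultures in leucine-free medium were split into four equal gates by GFP/Cherry ratio, and each gate's plasmids were PCR-amplified and Illumina-sequenced. The protein stability index adds up, over all gates, the read frequency multiplied by the gate number.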

| Sequence | protein stability index (doa10∆) | protein stability index (pdr5∆) | protein stability index (san1∆) | protein stability index (ubr1∆) |
| --- | --- | --- | --- | --- |
| SATVKTSDLLGSHLSET [ECM29] | 2.67 ± 0.071 | 2.98 ± 0.085 | 2.94 ± 0.095 | 2.86 ± 0.076 |
| KITDKEDLLHYIEEKHP [POP4] | 3.48 ± 0.1 | 3.3 ± 0.064 | 3.23 ± 0.057 | 3.24 ± 0.076 |
| KDPVDFVRQAAMIALSM [RPN2] | 1.42 ± 0.082 | 2.21 ± 0.14 | 1.81 ± 0.17 | 1.97 ± 0.13 |
| KDGLKLVGSWKKDRATG [RPO21] | 3.58 ± 0.2 | – | 3.33 ± 0.15 | – |
| KLFVSKEHAPYTDELEE [FAS2] | – | 1.61 ± 0.12 | 1.56 ± 0.28 | 1.83 ± 0.15 |
| SSNISPEQVYSLLLTNV [ARP7] | 2.27 ± 0.035 | 2.48 ± 0.036 | 2.43 ± 0.04 | 2.46 ± 0.033 |
| AKFFLNVSDEQLSNWQK [ITC1] | 3.21 ± 0.073 | 3.21 ± 0.053 | 3.18 ± 0.063 | 3.17 ± 0.072 |
| ISPKIWCAGAGTAADTE [PUP1] | 2.29 ± 0.1 | 2.36 ± 0.088 | 2.42 ± 0.12 | 2.24 ± 0.08 |
| MIQKVMEYLKSSKSLDL [RPN5] | 2.6 ± 0.051 | 1.55 ± 0.039 | 2.3 ± 0.057 | 2.46 ± 0.05 |
| ISSSTQCLRFLKETVIP [POP6] | 1.52 ± 0.074 | 1.87 ± 0.11 | 1.26 ± 0.22 | 2.27 ± 0.073 |
| LYEKDIVPSMTHLEIEP [RET1] | 2.68 ± 0.098 | 2.65 ± 0.089 | 2.73 ± 0.09 | 2.85 ± 0.053 |
| LFAREIAKSQDKKSCSV [DPB4] | 3.33 ± 0.064 | 3.24 ± 0.073 | 3.14 ± 0.067 | 3.22 ± 0.04 |
| INVDNDPFFAQSEDLSH [YML103C/NUP188] | 3.15 ± 0.055 | 3.08 ± 0.056 | 3.15 ± 0.044 | 3.05 ± 0.046 |
| VQELLKVLNEISKTTLT [RPN3] | 3.1 ± 0.15 | 3.29 ± 0.074 | 3.17 ± 0.055 | 3.39 ± 0.071 |
| NSNSNQQSTDADEDDED [RPT1] | 2.32 ± 0.095 | 2.34 ± 0.093 | 2.46 ± 0.091 | 2.37 ± 0.061 |
| KHGAVHMSTYLKIYKVG [RPL21B] | 1.65 ± 0.042 | 1.52 ± 0.043 | 1.9 ± 0.062 | 1.74 ± 0.054 |
| GGALDNPFEDDMDGVDF [BRN1] | 3.39 ± 0.054 | 3.32 ± 0.077 | 3.4 ± 0.039 | 3.41 ± 0.057 |
| LKENNAILQKSLKNVTE [YIL149C/MLP2] | 2.67 ± 0.049 | 2.57 ± 0.057 | 2.89 ± 0.038 | 2.75 ± 0.044 |
| TAGKTSVKSARTSTRGR [SNF2] | 3.44 ± 0.058 | 3.37 ± 0.052 | 3.12 ± 0.042 | 3.206 ± 0.031 |
| YTSIVQCCEFMTMLTPN [YML103C/NUP188] | 2.13 ± 0.051 | 2.03 ± 0.05 | 1.95 ± 0.062 | 2 ± 0.044 |
| EITDAYCFAKNDLFFNN [YMR129W/POM152] | 2.59 ± 0.059 | 2.56 ± 0.063 | 2.22 ± 0.071 | 2.61 ± 0.056 |
| NFKSYRGVTKVGFGESN [SMC1] | 3.03 ± 0.096 | 2.89 ± 0.13 | 2.53 ± 0.15 | 2.72 ± 0.11 |
| GGNNNNNSTGIANDNVI [SWI1] | 2.87 ± 0.057 | 3 ± 0.053 | 2.94 ± 0.05 | 3.14 ± 0.044 |
| INSTKNGKDNNNESNKN [MED2] | 3.08 ± 0.052 | 3.15 ± 0.045 | 3.22 ± 0.038 | 3.19 ± 0.033 |

| Sequence | protein stability index (doa10∆) | protein stability index (pdr5∆) | protein stability index (san1∆) | protein stability index (ubr1∆) |
| --- | --- | --- | --- | --- |
| TTTSNTSGTNIAGTFNV [YOR098C/NUP1] | 3 ± 0.05 | 2.54 ± 0.037 | 2.5 ± 0.051 | 2.24 ± 0.028 |
| KALRRKIYINLALGSHN [SSN2] | 3.05 ± 0.21 | 2.76 ± 0.15 | 2.4 ± 0.11 | 3.48 ± 0.15 |
| TRQSSRNFDTHENYIQD [MCD1] | 2.92 ± 0.098 | 3.03 ± 0.082 | 2.84 ± 0.08 | 2.69 ± 0.056 |
| SEYNFLEGSVSLPRFSK [DIS3] | 3.1 ± 0.078 | 3.18 ± 0.068 | 3.11 ± 0.05 | 3.2 ± 0.05 |
| KGKKYQPKDLRAKKTRA [RPL35A] | 2.85 ± 0.25 | 2.98 ± 0.14 | 2.46 ± 0.13 | 2.89 ± 0.12 |
| TIYYVDSDGTRLKGDIF [PRE2] | 3.24 ± 0.067 | 3.24 ± 0.065 | 2.97 ± 0.096 | 3.16 ± 0.057 |
| LDAIDDFIQLKQTAAYR [SSN2] | – | – | – | 3.23 ± 0.22 |
| ETLVLDEADKMIDLGFE [PRP28] | 3.18 ± 0.094 | 3.22 ± 0.12 | 3.31 ± 0.088 | 3.08 ± 0.056 |
| PKVSAGDSGISPEESKA [SIR4] | 3.44 ± 0.1 | 3.46 ± 0.13 | 2.98 ± 0.098 | 3.17 ± 0.059 |
| VQDRGLSAVAQAESMKF [RPS3] | 3.16 ± 0.11 | 3.16 ± 0.11 | 2.73 ± 0.15 | 2.9 ± 0.075 |
| KPKKPKGRAYKRLLYTR [RPS30A] | 3.13 ± 0.098 | 2.79 ± 0.11 | 3.02 ± 0.086 | 2.99 ± 0.055 |
| GNVVMDIGKGAETTFLQ [RPC53] | 3.26 ± 0.2 | – | 3.02 ± 0.22 | 3.29 ± 0.083 |
| RVVTVDGKLIDISGTMS [SMC4] | – | 3.11 ± 0.19 | 3.35 ± 0.06 | 3.52 ± 0.12 |
| SVPTNSADAPNPNNVNV [RET1] | 3.24 ± 0.084 | 3.14 ± 0.081 | 3.26 ± 0.049 | 3.23 ± 0.058 |
| SQSLTSILVIVQKILPL [SWI1] | 1.38 ± 0.041 | 1.39 ± 0.035 | 1.48 ± 0.066 | 1.61 ± 0.033 |
| SAIRQVFERFKTKILEV [IRR1] | 1.87 ± 0.045 | 2.03 ± 0.06 | 1.71 ± 0.07 | 2.26 ± 0.05 |
| VQKRDEVKEQLGILKKK [SMC4] | 2.75 ± 0.095 | 3.01 ± 0.077 | 3.24 ± 0.061 | 2.78 ± 0.05 |
| AVFIVPKILIREHERVI [SWP82] | 1.7 ± 0.085 | 2.06 ± 0.097 | 1.69 ± 0.15 | 2.1 ± 0.19 |
| DNEDSDNLFGETESSVS [SWI3] | 3.48 ± 0.14 | 3.07 ± 0.081 | – | 2.93 ± 0.085 |
| SDPMLQRTATLCLEKLM [YCS4] | 1.47 ± 0.21 | – | – | 1.14 ± 0.17 |
| DELILEAKERYTDRDQD [NNF1] | – | 3.68 ± 0.27 | 3.58 ± 0.1 | 3.52 ± 0.2 |
| RINTLPQVQLPVRALIV [ECM29] | – | 1.93 ± 0.26 | – | – |
| GSIGSRKYSFNYSSLPS [YAR002W/NUP60] | 1.95 ± 0.059 | 2.39 ± 0.062 | 2.12 ± 0.081 | 1.65 ± 0.039 |
| NGDNLYGNDEEVLFYED [RPN4] | 3.07 ± 0.1 | 3.22 ± 0.12 | 3.1 ± 0.096 | 2.95 ± 0.074 |

| Sequence | protein stability index (doa10∆) | protein stability index (pdr5∆) | protein stability index (san1∆) | protein stability index (ubr1∆) |
| --- | --- | --- | --- | --- |
| NVLNRIQELEDQRDELL [ITC1] | 3.39 ± 0.12 | 3.15 ± 0.085 | 3.5 ± 0.077 | 3.56 ± 0.12 |
| EISAAHNKLNITSDALE [SMC3] | 2.64 ± 0.17 | – | 2.58 ± 0.23 | – |
| AMSETLSKVSLLTPDIG [PRE8] | 3.08 ± 0.11 | 3.19 ± 0.12 | 3.04 ± 0.13 | 3.35 ± 0.23 |
| MSHRKYEAPRHGHLGFL [RPL3] | – | 3.15 ± 0.19 | 2.9 ± 0.099 | 2.94 ± 0.23 |
| VASLSKRNKLLTIFDSV [YJL039C/NUP192] | 1.98 ± 0.059 | 1.93 ± 0.048 | 2.28 ± 0.063 | 1.89 ± 0.048 |
| ILDAICFVLGIASMSTV [SMC2] | 1.45 ± 0.046 | 1.77 ± 0.054 | 1.78 ± 0.067 | 1.67 ± 0.06 |
| AETKSYDSRGVGEMKLL [YLR335W/NUP2] | 1.94 ± 0.064 | 2.1 ± 0.11 | 2.25 ± 0.097 | 2.44 ± 0.079 |
| ITVTAKQQPTMQANKLD [SWI3] | 3.19 ± 0.096 | 3.15 ± 0.071 | 2.82 ± 0.07 | 3.01 ± 0.055 |
| QLKNVQLDSYLVNGFSQ [MED2] | 2.49 ± 0.062 | 2.68 ± 0.088 | 2.24 ± 0.11 | 2.49 ± 0.042 |
| KIKDNKEKIKNNRQLPY [RPT5] | 3.23 ± 0.12 | 3.24 ± 0.16 | 3.18 ± 0.1 | 2.86 ± 0.1 |
| LRDESLTVDNLSIAIVG [PRE5] | 2.65 ± 0.075 | 2.26 ± 0.066 | 2.5 ± 0.06 | 2.93 ± 0.051 |
| TTRVGGGGAARRQAVDV [RPS5] | 1.61 ± 0.26 | 1.63 ± 0.12 | 1.73 ± 0.28 | 1.82 ± 0.17 |
| SIRAEAVAASSTKTGTP [POP1] | 3.48 ± 0.15 | 3.21 ± 0.1 | 3.08 ± 0.077 | 2.9 ± 0.069 |
| SPKPYAVKYGLNHVVSL [RPL8B] | 1.96 ± 0.07 | 2.09 ± 0.069 | 2.09 ± 0.092 | 1.94 ± 0.046 |
| PLKRAIWLIKCCYFIEW [SRB8] | 2.56 ± 0.1 | 2.12 ± 0.074 | 2.85 ± 0.097 | 2.77 ± 0.071 |
| LTIDDLGVASFHGTSTK [FAS2] | 2.99 ± 0.063 | 3.01 ± 0.071 | 3.03 ± 0.06 | 3.01 ± 0.047 |
| VNGPNVHPGANYLLKRN [RPO31] | 3.29 ± 0.056 | 3.21 ± 0.068 | 3.26 ± 0.044 | 3.21 ± 0.037 |
| ETQLKVVTRSKEAFEEE [SMC1] | – | 3.25 ± 0.15 | – | 3.39 ± 0.085 |
| KNIHISKRSKIDIINKL [YML103C/NUP188] | 1.34 ± 0.17 | – | – | 1.49 ± 0.14 |
| AHRIMLTNILRMMGCVK [FAS2] | 1.86 ± 0.061 | 1.87 ± 0.06 | 1.9 ± 0.12 | 2.41 ± 0.19 |
| NGWEKYLHNVELGEKKN [ISW2] | 1.7 ± 0.087 | 1.8 ± 0.14 | 1.65 ± 0.16 | 2.56 ± 0.092 |
| AETLCFTVNVLYPDSSS [RPN3] | 2.56 ± 0.055 | 2.69 ± 0.05 | 2.97 ± 0.052 | 2.87 ± 0.041 |
| LDNFQKSVEKTMIKKTT [SMC3] | – | 3.29 ± 0.19 | 2.89 ± 0.069 | 3.17 ± 0.075 |
| HLVWMKGTNDEGTSISV [YCS4] | 1.84 ± 0.11 | 2.23 ± 0.086 | 1.9 ± 0.18 | 2.2 ± 0.17 |

From the supplement of paper PMC9732359
